Test results: PMC9413444 (ACS Nano, 2022)

System: intracranial glioblastoma GL261 in BL/6 mice
Settings: GL261 tumor-bearing BL/6 mice; IV; 2 h post-injection (Figure 2B)

With “poly(β-L-malic acid)-trileucine polymer [P/LLL(40%)]” the “increase of fluorescence in tumor tissue from dose 0.25X to dose 1.0X” value was “increases proportionally with the dose administered”.
